From publication PMC12205649
Blank lines part the entries; values can stand above or below the molecule they belong to.

Assays:
[1] = biological target: E. coli CsgC (E. coli) (UniProt P52107)
[2] = biological target: E. coli CsgA, freshly purified monomer (E. coli) (UniProt P28307); test: native MS; ion mobility-mass spectrometry (nESI, Synapt G2); CsgA and CsgC each diluted to 20 μM and mixed 1:1 in 20 mM ammonium acetate pH 7.4, incubated at 37 °C, time points 0, 3, 6 and 23 h
[3] = biological target: E. coli CsgA fibrils (sonicated amyloid fibres of WT CsgA) (E. coli) (UniProt P28307); test: SPR; BIAcore 3000, CM5 chip; sonicated CsgA fibrils amine-coupled at 1300 RU; gel-filtered CsgC injected 5 min at 4 to 0.25 μM (two-fold dilutions); phosphate buffer pH 7.5, 0.05% Tween, 25 °C; fitted with Scrubber2
[4] = biological target: T1, E. coli CsgC (E. coli), P52107; test: native MS; ion mobility-mass spectrometry (nESI, Synapt G2); CsgA and CsgC each diluted to 20 μM and mixed 1:1 in 20 mM ammonium acetate pH 7.4, incubated at 37 °C, time points 0, 3, 6 and 23 h; settings: remark: other sources report otherwise
T1 chain: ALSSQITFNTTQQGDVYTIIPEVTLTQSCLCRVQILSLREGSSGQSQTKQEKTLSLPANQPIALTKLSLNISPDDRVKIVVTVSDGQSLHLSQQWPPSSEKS

ThT binding assay: increase in lag time of CsgA eluted from the CsgC-linked column compared with CsgA eluted from the Tris-quenched column [1]: 51 min
ThT binding assay: increase in time to half maximum ThT fluorescence of CsgA eluted from the CsgC-linked column compared with CsgA eluted from the Tris-quenched column [1]: 52 min
Molecule: E. coli CsgA, freshly purified monomer (from UniProt P28307 21-151) (natural protein)

stoichiometry N [2]: 1
Kd [3]: 360 nM
koff [3]: 0.00118 s⁻¹
Molecule: E. coli CsgC (from UniProt P52107 9-110) (natural protein)

stoichiometry N [4]: 2
B1: E. coli CsgC, P52107 9-110 (natural protein)
chain: T1 chain
